The source of these data is publication PMC4299599, “Quantification of cytosolic interactions identifies Ede1 oligomers as key organizers of endocytosis” (Molecular Systems Biology, 2014).

Holding throughout (details): partners not purified
For one test, the target named is T1, Ste11-3mCherry (S. cerevisiae, UniProt P23561 1-717).
T1 construct: Ste11, S. cerevisiae; negative control of FCCS; source: S. cerevisiae strain Don1-eGFP, Ste11-3mCherry, in living cells
T1 sequence (looked up): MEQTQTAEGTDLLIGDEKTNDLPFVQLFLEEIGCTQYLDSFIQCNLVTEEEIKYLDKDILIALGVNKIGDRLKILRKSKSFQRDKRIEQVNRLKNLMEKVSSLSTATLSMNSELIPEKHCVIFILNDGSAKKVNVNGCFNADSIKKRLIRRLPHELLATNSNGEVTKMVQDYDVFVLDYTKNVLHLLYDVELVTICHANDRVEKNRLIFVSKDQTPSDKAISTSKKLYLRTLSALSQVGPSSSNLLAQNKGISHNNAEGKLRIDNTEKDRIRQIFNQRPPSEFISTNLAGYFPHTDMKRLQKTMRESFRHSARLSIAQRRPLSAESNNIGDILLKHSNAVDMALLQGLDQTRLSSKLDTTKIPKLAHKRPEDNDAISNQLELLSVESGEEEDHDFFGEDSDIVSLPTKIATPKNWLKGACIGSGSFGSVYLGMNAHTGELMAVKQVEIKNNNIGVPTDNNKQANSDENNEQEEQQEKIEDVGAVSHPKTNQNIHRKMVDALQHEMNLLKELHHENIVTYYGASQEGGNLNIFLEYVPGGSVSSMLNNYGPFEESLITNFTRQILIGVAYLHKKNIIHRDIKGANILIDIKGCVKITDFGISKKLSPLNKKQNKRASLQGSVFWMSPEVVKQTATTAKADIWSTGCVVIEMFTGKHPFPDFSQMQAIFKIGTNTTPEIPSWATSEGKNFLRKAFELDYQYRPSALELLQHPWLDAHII
The experiment in a line: fluorescence cross-correlation spectroscopy (FCCS); living yeast cells, observation volume in the cytoplasm; one protein tagged with (3)myeGFP/eGFP and the other with 3mCherry in the same strain; apparent (effective) KD; interactions up to ~1 μM detectable.

A further test addresses T2, Bbc1 (S. cerevisiae, UniProt P47068 1-1157).
T2 construct: Bbc1, S. cerevisiae; also called Bbc1-3myeGFP; Bbc1-3mCherry; source: chromosomally tagged at the endogenous locus, in the cytoplasm of living S. cerevisiae cells
T2 sequence (looked up): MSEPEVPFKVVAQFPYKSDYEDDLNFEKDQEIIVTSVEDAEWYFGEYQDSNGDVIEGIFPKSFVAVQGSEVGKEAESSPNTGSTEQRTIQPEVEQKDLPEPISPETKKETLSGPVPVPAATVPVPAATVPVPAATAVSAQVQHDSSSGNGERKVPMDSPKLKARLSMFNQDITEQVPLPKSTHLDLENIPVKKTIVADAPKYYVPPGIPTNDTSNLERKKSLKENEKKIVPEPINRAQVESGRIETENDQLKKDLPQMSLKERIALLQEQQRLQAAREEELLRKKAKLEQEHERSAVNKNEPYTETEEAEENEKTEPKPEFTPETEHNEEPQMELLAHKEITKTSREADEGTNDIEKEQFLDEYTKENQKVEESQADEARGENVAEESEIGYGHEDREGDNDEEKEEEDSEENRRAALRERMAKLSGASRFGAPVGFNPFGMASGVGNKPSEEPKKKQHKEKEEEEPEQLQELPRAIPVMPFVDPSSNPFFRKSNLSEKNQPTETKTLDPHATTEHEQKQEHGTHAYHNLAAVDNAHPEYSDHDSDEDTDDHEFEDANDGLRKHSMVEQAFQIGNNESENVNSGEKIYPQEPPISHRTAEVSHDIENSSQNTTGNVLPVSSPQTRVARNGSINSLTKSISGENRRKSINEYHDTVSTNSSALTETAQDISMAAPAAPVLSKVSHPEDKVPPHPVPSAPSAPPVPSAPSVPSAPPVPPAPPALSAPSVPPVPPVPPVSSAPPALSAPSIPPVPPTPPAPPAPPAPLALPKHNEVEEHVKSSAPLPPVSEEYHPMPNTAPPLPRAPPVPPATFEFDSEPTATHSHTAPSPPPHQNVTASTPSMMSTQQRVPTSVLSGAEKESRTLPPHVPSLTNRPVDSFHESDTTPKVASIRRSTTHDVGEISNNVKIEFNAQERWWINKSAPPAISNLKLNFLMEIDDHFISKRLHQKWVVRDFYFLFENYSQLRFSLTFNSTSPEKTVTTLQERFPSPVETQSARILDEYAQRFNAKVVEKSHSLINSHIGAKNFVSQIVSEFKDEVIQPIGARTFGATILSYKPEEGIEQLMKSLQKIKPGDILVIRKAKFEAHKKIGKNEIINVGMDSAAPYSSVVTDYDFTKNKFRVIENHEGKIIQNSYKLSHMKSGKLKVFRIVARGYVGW
In words: fluorescence cross-correlation spectroscopy (FCCS); in the cytoplasm of living yeast cells; first-named protein green (3myeGFP or 1myeGFP; eGFP for Don1), second red (3mCherry); self-interaction in diploid strains with one allele of each colour; apparent or effective KD (Kdeff) from single-cell measurements; only Kdeff values < 1000 nM are shown; values for self-interactions are upper limits.

In another test the target is T3, Sla1 (S. cerevisiae, UniProt P32790 1-1244).
T3 construct: Sla1, S. cerevisiae; also called Sla1-3myeGFP; Sla1-3mCherry; source: chromosomally tagged at the endogenous locus, in the cytoplasm of living S. cerevisiae cells
T3 sequence (looked up): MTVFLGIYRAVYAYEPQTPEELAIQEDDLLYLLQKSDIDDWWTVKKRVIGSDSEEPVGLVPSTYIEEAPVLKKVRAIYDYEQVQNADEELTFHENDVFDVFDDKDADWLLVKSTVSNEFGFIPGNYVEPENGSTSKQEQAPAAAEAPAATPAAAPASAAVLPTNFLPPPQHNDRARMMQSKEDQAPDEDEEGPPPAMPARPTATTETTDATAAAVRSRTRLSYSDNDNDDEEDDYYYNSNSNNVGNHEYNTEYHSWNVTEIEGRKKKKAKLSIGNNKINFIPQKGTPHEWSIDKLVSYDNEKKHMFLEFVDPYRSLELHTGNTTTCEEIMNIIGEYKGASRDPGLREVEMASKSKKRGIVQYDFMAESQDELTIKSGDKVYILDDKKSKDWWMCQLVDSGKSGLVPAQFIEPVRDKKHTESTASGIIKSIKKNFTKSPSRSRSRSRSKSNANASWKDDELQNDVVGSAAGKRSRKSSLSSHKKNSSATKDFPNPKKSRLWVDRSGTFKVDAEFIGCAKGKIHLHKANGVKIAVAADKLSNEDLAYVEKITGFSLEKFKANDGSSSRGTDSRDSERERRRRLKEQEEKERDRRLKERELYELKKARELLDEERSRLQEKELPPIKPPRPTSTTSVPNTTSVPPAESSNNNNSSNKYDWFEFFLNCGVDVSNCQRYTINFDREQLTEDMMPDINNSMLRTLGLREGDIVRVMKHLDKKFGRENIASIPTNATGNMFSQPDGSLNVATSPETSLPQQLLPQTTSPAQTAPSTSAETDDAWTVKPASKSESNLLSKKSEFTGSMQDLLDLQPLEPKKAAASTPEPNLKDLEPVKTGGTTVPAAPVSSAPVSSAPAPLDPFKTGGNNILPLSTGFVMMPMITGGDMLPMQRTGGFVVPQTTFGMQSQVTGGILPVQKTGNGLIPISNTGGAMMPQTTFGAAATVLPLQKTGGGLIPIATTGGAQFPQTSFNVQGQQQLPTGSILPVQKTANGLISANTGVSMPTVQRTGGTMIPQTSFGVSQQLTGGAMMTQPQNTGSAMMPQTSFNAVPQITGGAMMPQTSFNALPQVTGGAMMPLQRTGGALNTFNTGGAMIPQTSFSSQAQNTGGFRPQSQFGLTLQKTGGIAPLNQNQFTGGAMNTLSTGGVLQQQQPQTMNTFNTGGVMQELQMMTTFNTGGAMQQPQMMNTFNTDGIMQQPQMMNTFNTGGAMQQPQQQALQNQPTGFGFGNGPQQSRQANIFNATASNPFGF
The test is described as above.

The next test concerns the target T4, Rvs167 (S. cerevisiae, UniProt P39743 1-482).
T4 construct: Rvs167, amphiphysin-like protein, S. cerevisiae; also called Rvs167-1myeGFP; source: chromosomally tagged at the endogenous locus, in the cytoplasm of living S. cerevisiae cells; not shown: 1myeGFP, C-terminal, kept
Described as above.

A value given as a limit tells only on which side of the number the result lay.

T4 sequence (P39743 whole entry): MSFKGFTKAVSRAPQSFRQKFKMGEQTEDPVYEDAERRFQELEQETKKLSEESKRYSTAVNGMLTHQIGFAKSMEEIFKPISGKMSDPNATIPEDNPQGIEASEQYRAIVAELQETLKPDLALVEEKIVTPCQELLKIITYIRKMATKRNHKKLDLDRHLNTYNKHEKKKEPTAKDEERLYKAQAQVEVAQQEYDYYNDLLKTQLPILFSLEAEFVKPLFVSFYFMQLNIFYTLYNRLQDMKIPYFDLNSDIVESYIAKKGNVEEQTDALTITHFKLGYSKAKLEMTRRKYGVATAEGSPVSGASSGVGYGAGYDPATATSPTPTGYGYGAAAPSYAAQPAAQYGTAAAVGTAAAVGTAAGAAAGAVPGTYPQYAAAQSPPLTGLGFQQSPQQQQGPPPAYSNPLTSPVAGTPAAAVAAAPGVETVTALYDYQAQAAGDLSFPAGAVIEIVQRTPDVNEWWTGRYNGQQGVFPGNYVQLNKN

B1: Don1-eGFP (natural protein, S. cerevisiae, UniProt Q05610 1-365, looked up)
chain: MGKKNRKGKENNAAKTSFLKVENIKNTNSGLELPSQDYTNVEEKESSPKTDFPLITKEHVNTKTDSNILDYPTIGDLVSSVEKLCVLKELKIAFPEVDDTLIKAILIASQGVLEPAFNSLLYYSSPEENTDFALPMKPISVEDYSKINVSEILQREIFDDIEDEFSGQGINGSMVISKIESELSSLAEHIGNISTPGSNREVAESTRNVAVAEGHNTILSNEDSILKGKEKGKEEEKEKGEEKGVNSLKGAAVKVVAKSLKNNRIPVTVKRNEPSNNLFDVLNCDESEEEEEQDVETNTSNQERKNQGGNTEVPEAQRDSADRLPAKDDGGYKSAFGTDSCGLFAADAKDEKKQVHPSRQELSFT
notes: Don1, S. cerevisiae; negative control of FCCS; source: S. cerevisiae strain Don1-eGFP, Ste11-3mCherry, in living cells
As for B1, in the test with Ste11-3mCherry, the Kd was greater than 1000 nM.

B2: Bzz1 (natural protein, S. cerevisiae, UniProt P38822 1-633, looked up)
chain: MSADLSIGNEIKDSFKETHKWVQNNLKWLKDIEQFYRERAKLEKDYSERLSRLSAEYFNKKSSTSVPISVGDTPTTTPGSIEAAGVVAWNEILSQTDMISKDHDQLSTDFENHVANQLSGLFTKLDMTLSKINGFNNDMVNKKDNIYHELEKAKKDYDEACSTMEMARNRYTKASNDRNKKKLDEKEMEMNKCKNEYLIKINQANRTKDKYYFQDVPEVLDLLQDVNEAKTLFLNDLWLKAASVENDLGANVSKRLQAANSVVKQNKPSLNTAIFIKHNLKNWKEPQDFVYKPSPVWHDDEKFAVPSSLEVEDLRIKLAKAENDYNSLQDKTQNELSKLSTLNKIKHEMKTNEDNINATKFYDTLKEYLNVVSPFTSHETLKLQAEVQIESIQNNVPEEYDLSTDNIDLSKTKKKSGIFSKFKHNILNVDSKPSSGGSTGNGNGGPLHITSLFNTSRRTRLGSAPNNAGEDSDNNSIRTTSTNNTKKTTQNSSDDGKNKVLYAYVQKDDDEITITPGDKISLVARDTGSGWTKINNDTTGETGLVPTTYIRISSAATVKANDRGPAPEVPPPRRSTLPVRTMEAIYAYEAQGDDEISIDPGDIITVIRGDDGSGWTYGECDGLKGLFPTSYCK
notes: Bzz1, S. cerevisiae; also called Bzz1-3myeGFP; Bzz1-3mCherry; source: chromosomally tagged at the endogenous locus, in the cytoplasm of living S. cerevisiae cells
Turning to B2, the Kd is 994 nM with Bbc1 and 976 nM with Sla1.

B3: Rvs161 (natural protein, S. cerevisiae, UniProt P25343 1-265, looked up)
chain: MSWEGFKKAINRAGHSVIIKNVDKTIDKEYDMEERRYKVLQRAGEALQKEAKGFLDSLRAVTASQTTIAEVISNLYDDSKYVAGGGYNVGNYYLQCVQDFDSETVKQLDGPLRETVLDPITKFSTYFKEIEEAIKKRDHKKQDFDAAKAKVRRLVDKPAKDASKLPRAEKELSLAKDIFENLNNQLKTELPQLVSLRVPYFDPSFEALIKIQLRFCTDGYTRLAQIQQYLDQQSRDDYANGLLDTKIEELLGQMTSLDICALGIK
notes: Rvs161, amphiphysin-like protein, S. cerevisiae; also called Rvs161-1myeGFP; Rvs161-3mCherry; source: chromosomally tagged at the endogenous locus, in the cytoplasm of living S. cerevisiae cells
Consider B3, for which the Kd in the test with Rvs167 came to 6 nM.
